# Data: IntAct's records for PubMed 24879834
# B1: TBC1 domain family member 1 (Homo sapiens), Q86TI0 (parent)
# chain: MEPITFTARKHLLSNEVSVDFGLQLVGSLPVHSLTTMPMLPWVVAEVRRLSRQSTRKEPVTKQVRLCVSPSGLRCEPEPGRSQQWDPLIYSSIFECKPQRVHKLIHNSHDPSYFACLIKEDAVHRQSICYVFKADDQTKVPEIISSIRQAGKIARQEELHCPSEFDDTFSKKFEVLFCGRVTVAHKKAPPALIDECIEKFNHVSGSRGSESPRPNPPHAAPTGSQEPVRRPMRKSFSQPGLRSLAFRKELQDGGLRSSGFFSSFEESDIENHLISGHNIVQPTDIEENRTMLFTIGQSEVYLISPDTKKIALEKNFKEISFCSQGIRHVDHFGFICRESSGGGGFHFVCYVFQCTNEALVDEIMMTLKQAFTVAAVQQTAKAPAQLCEGCPLQSLHKLCERIEGMNSSKTKLELQKHLTTLTNQEQATIFEEVQKLRPRNEQRENELIISFLRCLYEEKQKEHIHIGEMKQTSQMAAENIGSELPPSATRFRLDMLKNKAKRSLTESLESILSRGNKARGLQEHSISVDLDSSLSSTLSNTSKEPSVCEKEALPISESSFKLLGSSEDLSSDSESHLPEEPAPLSPQQAFRRRANTLSHFPIECQEPPQPARGSPGVSQRKLMRYHSVSTETPHERKDFESKANHLGDSGGTPVKTRRHSWRQQIFLRVATPQKACDSSSRYEDYSELGELPPRSPLEPVCEDGPFGPPPEEKKRTSRELRELWQKAILQQILLLRMEKENQKLQASENDLLNKRLKLDYEEITPCLKEVTTVWEKMLSTPGRSKIKFDMEKMHSAVGQGVPRHHRGEIWKFLAEQFHLKHQFPSKQQPKDVPYKELLKQLTSQQHAILIDLGRTFPTHPYFSAQLGAGQLSLYNILKAYSLLDQEVGYCQGLSFVAGILLLHMSEEEAFKMLKFLMFDMGLRKQYRPDMIILQIQMYQLSRLLHDYHRDLYNHLEEHEIGPSLYAAPWFLTMFASQFPLGFVARVFDMIFLQGTEVIFKVALSLLGSHKPLILQHENLETIVDFIKSTLPNLGLVQMEKTINQVFEMDIAKQLQAYEVEYHVLQEELIDSSPLSDNQRMDKLEKTNSSLRKQNLDLLEQLQVANGRIQSLEATIEKLLSSESKLKQAMLTLELERSALLQTVEELRRRSAEPSDREPECTQPEPTGD
# partner: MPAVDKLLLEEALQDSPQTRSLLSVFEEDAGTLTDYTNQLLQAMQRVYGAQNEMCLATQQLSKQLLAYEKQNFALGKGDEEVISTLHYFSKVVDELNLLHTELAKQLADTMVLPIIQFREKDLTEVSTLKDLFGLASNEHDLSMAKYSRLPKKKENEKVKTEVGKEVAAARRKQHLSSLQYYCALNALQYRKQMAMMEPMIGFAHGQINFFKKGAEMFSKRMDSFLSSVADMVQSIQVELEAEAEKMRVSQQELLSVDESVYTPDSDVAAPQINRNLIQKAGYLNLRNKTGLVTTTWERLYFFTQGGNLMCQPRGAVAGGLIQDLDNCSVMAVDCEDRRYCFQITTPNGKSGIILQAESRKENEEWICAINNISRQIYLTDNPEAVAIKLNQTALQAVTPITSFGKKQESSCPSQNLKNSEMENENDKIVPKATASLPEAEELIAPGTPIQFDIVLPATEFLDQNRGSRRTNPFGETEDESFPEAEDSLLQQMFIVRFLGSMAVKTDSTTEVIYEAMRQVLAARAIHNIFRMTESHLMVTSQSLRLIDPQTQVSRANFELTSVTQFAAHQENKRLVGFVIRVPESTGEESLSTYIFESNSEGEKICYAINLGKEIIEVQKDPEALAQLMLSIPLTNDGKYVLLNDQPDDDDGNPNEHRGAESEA
# Variants of: B1
# Conditions: with dp13b_human APPL2, Q8NEU8
row,Variant,effect of a mutation on the interaction
1,S235A,disrupting interaction strength
2,S237A,with no effect
